The supplement of paper PMC7877785
± gives the uncertainty stated by the source.

Assay: self-splicing fitness, log relative to wild type (ln ratio); higher = more splicing; Tetrahymena group I intron in knt gene, E. coli kanamycin selection, DiMSum; sequences stand for … in CUCUCU…GGAGGGAAAAGUUAUCAGGCAUGCACCUGGUAGCUAGUCUUUAAACCAAUAGAUUGCAUCGGUUUAAAAGGCAAGACCGUCAAAUUGCGGGAAAGGGGUCAACAGCCGUUCAGUACCAAGUCUCAGGGGAAACUUUGAGAUGGCCUUGCAAAGGGUAUGGUAAUAAGCUGACGGACAUGGUCCUAACCACGCAGCCAAGUCCUAAGUCAACAGAUCUUCUGUUGAUAUGGAUGCAGUUCACAGACUAAAUGUCGGUCGGGGAAGAUGUAUUCUUCUCAUAAGAUAUAGUCGGACCUCUCCUUAAUGGGAGCUAGCGGAUGAAGUGAUGCAACACUGGAGCCGCUGGGAACUAAUUUGUAUGCGAAAGUAUAUUGAUUAGUUUUGGAGUACUCGUGGUCG
Outline: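 Fitness was computed with DiMSum as the error-weighted combination of replicate fold changes, kanamycin versus none, each normalised to wild type. The library randomised all eight intron nucleotides of the P1ex region, with the intron placed in the knt kanamycin-resistance gene on pET-22b(+) in E. coli BL21(DE3). Six replicate transformations were grown overnight at 37°C or 30°C on LB agar with or without 25 μg/mL kanamycin, plus 100 μg/mL carbenicillin, 50 μM IPTG and 0.2% rhamnose. Pooled colonies were amplicon-sequenced on an Illumina HiSeq 2500.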

| Sequence | self-splicing fitness (ln) (30 °C) | self-splicing fitness (ln) (37 °C) |
| --- | --- | --- |
| CUUUAGCAAUAUUACGCUGC | -3.39 ± 0.38 | 0.317 ± 0.36 |
| CUUUAGCAAUAUUACGGCGC | -2.73 ± 0.37 | – |
| CUUUAGCAAUAUUACGGGCC | -3.32 ± 0.16 | -2.64 ± 0.21 |
| CUUUAGCAAUAUUACGGGUA | -3.97 ± 0.47 | -2.56 ± 0.21 |
| CUUUAGCAAUAUUACGGUUA | -3.31 ± 0.28 | -3.19 ± 0.37 |
| CUUUAGCAAUAUUACGGUUC | -3.33 ± 0.3 | -2.83 ± 0.29 |
| CUUUAGCAAUAUUACGUAAC | – | -1.64 ± 0.37 |
| CUUUAGCAAUAUUACGUAAG | -0.953 ± 0.081 | -0.626 ± 0.11 |
| CUUUAGCAAUAUUACGUCAU | -4.6 ± 0.39 | -2.13 ± 0.23 |
| GAAAAGCAAUAUUACGAAGU | -2.98 ± 0.18 | -0.976 ± 0.2 |
| GAAAAGCAAUAUUACGACCU | -0.497 ± 0.13 | -1.42 ± 0.12 |
| GAAAAGCAAUAUUACGACGA | -0.234 ± 0.09 | -0.0451 ± 0.096 |
| GAAAAGCAAUAUUACGCAUA | -1.72 ± 0.093 | -0.672 ± 0.083 |
| GAAAAGCAAUAUUACGCCAG | -2.72 ± 0.21 | -2.28 ± 0.32 |
| GAAAAGCAAUAUUACGCGUC | -4.29 ± 0.27 | -2.78 ± 0.24 |
| GAAAAGCAAUAUUACGCUCG | -0.762 ± 0.11 | -0.303 ± 0.15 |
| GAAAAGCAAUAUUACGGAAC | -2.14 ± 0.13 | -1.25 ± 0.15 |
| GAAAAGCAAUAUUACGGAAU | -2.81 ± 0.13 | -1.07 ± 0.1 |
| GAAAAGCAAUAUUACGGAGG | -2.71 ± 0.14 | -1.73 ± 0.18 |
| GAAAAGCAAUAUUACGGGCG | -1.32 ± 0.071 | -0.282 ± 0.1 |
| GAAAAGCAAUAUUACGGGGC | -2.89 ± 0.16 | -3.46 ± 0.37 |
| GAAAAGCAAUAUUACGGUUA | -0.324 ± 0.062 | -0.0141 ± 0.067 |
| GAAAAGCAAUAUUACGUACG | -1.16 ± 0.061 | -0.9 ± 0.079 |
| GAAAAGCAAUAUUACGUAUC | -3.9 ± 0.15 | -1.48 ± 0.1 |
| GAAAAGCAAUAUUACGUCAU | -1.82 ± 0.088 | -0.42 ± 0.097 |

| Sequence | self-splicing fitness (ln) (30 °C) | self-splicing fitness (ln) (37 °C) |
| --- | --- | --- |
| GAAAAGCAAUAUUACGUGGA | -2.96 ± 0.12 | -1.89 ± 0.12 |
| GAACAGCAAUAUUACGAAAC | -0.693 ± 0.1 | -0.301 ± 0.12 |
| GAACAGCAAUAUUACGAAAU | -1.67 ± 0.12 | -0.204 ± 0.14 |
| GAACAGCAAUAUUACGACAG | -3.37 ± 0.18 | -2.55 ± 0.17 |
| GAACAGCAAUAUUACGACCC | -0.0445 ± 0.095 | 0.121 ± 0.11 |
| GAACAGCAAUAUUACGACUU | -0.206 ± 0.072 | 0.314 ± 0.088 |
| GAACAGCAAUAUUACGAGGG | -3.29 ± 0.22 | -1.87 ± 0.22 |
| GAACAGCAAUAUUACGAGGU | -3.08 ± 0.14 | -1.71 ± 0.12 |
| GAACAGCAAUAUUACGAUUC | -1.65 ± 0.072 | -1.21 ± 0.11 |
| GAACAGCAAUAUUACGAUUG | -1.62 ± 0.082 | -1.26 ± 0.11 |
| GAACAGCAAUAUUACGCAUA | -0.914 ± 0.079 | -0.68 ± 0.094 |
| GAACAGCAAUAUUACGCAUU | -1.67 ± 0.095 | -0.812 ± 0.12 |
| GAACAGCAAUAUUACGCCCC | -1.22 ± 0.25 | -0.835 ± 0.47 |
| GAACAGCAAUAUUACGCCCG | -2.49 ± 0.22 | -0.797 ± 0.2 |
| GAACAGCAAUAUUACGCGGU | -3.6 ± 0.19 | -2.82 ± 0.21 |
| GAACAGCAAUAUUACGCGUA | -0.925 ± 0.072 | -0.411 ± 0.07 |
| GAACAGCAAUAUUACGGCUU | -0.492 ± 0.064 | 0.239 ± 0.087 |
| GAACAGCAAUAUUACGGGAG | -2.06 ± 0.086 | -1.47 ± 0.097 |
| GAACAGCAAUAUUACGGGCG | -1.68 ± 0.086 | -0.0108 ± 0.097 |
| GAACAGCAAUAUUACGGUAG | -2.81 ± 0.12 | -1.87 ± 0.14 |
| GAACAGCAAUAUUACGGUUC | -3 ± 0.14 | -2.93 ± 0.22 |
| GAACAGCAAUAUUACGUAAC | -1.12 ± 0.082 | -0.127 ± 0.1 |
| GAACAGCAAUAUUACGUACG | -0.821 ± 0.081 | -0.0209 ± 0.11 |
| GAACAGCAAUAUUACGUAUU | -1.57 ± 0.063 | -0.99 ± 0.075 |
| GAACAGCAAUAUUACGUCAU | -0.993 ± 0.069 | -0.47 ± 0.084 |

| Sequence | self-splicing fitness (ln) (30 °C) | self-splicing fitness (ln) (37 °C) |
| --- | --- | --- |
| GAACAGCAAUAUUACGUCUU | -0.598 ± 0.07 | 0.229 ± 0.089 |
| GAACAGCAAUAUUACGUGAC | -1.63 ± 0.11 | -0.482 ± 0.15 |
| GAACAGCAAUAUUACGUUGG | -2.51 ± 0.08 | -1.94 ± 0.1 |
| GAAGAGCAAUAUUACGAACA | -2.15 ± 0.23 | -1.54 ± 0.25 |
| GAAGAGCAAUAUUACGAGGC | – | -1.8 ± 0.41 |
| GAAGAGCAAUAUUACGAUUA | -2.33 ± 0.23 | -1.85 ± 0.17 |
| GAAGAGCAAUAUUACGCCAG | – | -0.627 ± 0.38 |
| GAAGAGCAAUAUUACGCCAU | – | -1.61 ± 0.37 |
| GAAGAGCAAUAUUACGCCUG | -0.984 ± 0.19 | -0.756 ± 0.35 |
| GAAGAGCAAUAUUACGCGAC | -3.8 ± 0.36 | -1.18 ± 0.18 |
| GAAGAGCAAUAUUACGCUCA | – | -1.33 ± 0.48 |
| GAAGAGCAAUAUUACGCUGC | – | -2.63 ± 0.48 |
| GAAGAGCAAUAUUACGGCGC | -1.12 ± 0.16 | -0.427 ± 0.16 |
| GAAGAGCAAUAUUACGGCGG | -3.45 ± 0.2 | -2.19 ± 0.27 |
| GAAGAGCAAUAUUACGUGAU | -3.4 ± 0.14 | -1.51 ± 0.13 |
| GAAGAGCAAUAUUACGUUGC | -3.04 ± 0.28 | -2.25 ± 0.27 |
| GAAUAGCAAUAUUACGAAUG | -1.42 ± 0.24 | -1.15 ± 0.28 |
| GAAUAGCAAUAUUACGACCA | -0.287 ± 0.13 | -0.616 ± 0.13 |
| GAAUAGCAAUAUUACGACCC | 0.178 ± 0.39 | – |
| GAAUAGCAAUAUUACGAGUC | -3.29 ± 0.15 | -1.4 ± 0.11 |
| GAAUAGCAAUAUUACGAUAG | -0.707 ± 0.15 | -1.47 ± 0.22 |
| GAAUAGCAAUAUUACGCACA | -0.518 ± 0.15 | 1.18 ± 0.18 |
| GAAUAGCAAUAUUACGCCGU | -1.6 ± 0.1 | -0.466 ± 0.11 |
| GAAUAGCAAUAUUACGCUGA | -2.56 ± 0.31 | -0.623 ± 0.22 |
| GAAUAGCAAUAUUACGCUUA | -1.5 ± 0.17 | -0.146 ± 0.17 |

| Sequence | self-splicing fitness (ln) (30 °C) | self-splicing fitness (ln) (37 °C) |
| --- | --- | --- |
| GAAUAGCAAUAUUACGGACG | -1.84 ± 0.16 | -0.471 ± 0.22 |
| GAAUAGCAAUAUUACGGAUA | -2.36 ± 0.26 | -1.46 ± 0.21 |
| GAAUAGCAAUAUUACGGCGC | 0.0238 ± 0.14 | 0.023 ± 0.16 |
| GAAUAGCAAUAUUACGGUGA | -1.69 ± 0.12 | -1.36 ± 0.11 |
| GAAUAGCAAUAUUACGUCUG | -1.85 ± 0.075 | -0.674 ± 0.082 |
| GAAUAGCAAUAUUACGUGUG | -2.23 ± 0.07 | -1.52 ± 0.073 |
| GAAUAGCAAUAUUACGUUGC | -4.27 ± 0.34 | -2.69 ± 0.37 |
| GACAAGCAAUAUUACGAAUU | -1.56 ± 0.063 | -1.47 ± 0.099 |
| GACAAGCAAUAUUACGACAG | -4.68 ± 0.22 | -2.63 ± 0.14 |
| GACAAGCAAUAUUACGACCU | 0.335 ± 0.11 | -0.133 ± 0.12 |
| GACAAGCAAUAUUACGAUCC | -2.7 ± 0.22 | -2.08 ± 0.34 |
| GACAAGCAAUAUUACGCAAA | -2.04 ± 0.13 | -1.81 ± 0.12 |
| GACAAGCAAUAUUACGCAGC | – | -1.7 ± 0.22 |
| GACAAGCAAUAUUACGCAUG | -2.33 ± 0.13 | -0.814 ± 0.14 |
| GACAAGCAAUAUUACGCCAG | -3.1 ± 0.3 | – |
| GACAAGCAAUAUUACGCCUU | -1.15 ± 0.14 | -1.04 ± 0.13 |
| GACAAGCAAUAUUACGCGCA | -0.282 ± 0.099 | -0.0559 ± 0.1 |
| GACAAGCAAUAUUACGCGUA | -1.12 ± 0.072 | -0.683 ± 0.078 |
| GACAAGCAAUAUUACGCGUG | -2.54 ± 0.076 | -0.344 ± 0.071 |
| GACAAGCAAUAUUACGCUAU | -1.96 ± 0.094 | -1.17 ± 0.1 |
| GACAAGCAAUAUUACGGACA | -1.33 ± 0.14 | -0.153 ± 0.13 |
| GACAAGCAAUAUUACGGAGA | -2.59 ± 0.18 | -1.98 ± 0.14 |
| GACAAGCAAUAUUACGGUUG | -2.3 ± 0.087 | -1.15 ± 0.11 |
